# Reference: paper doi:10.1101/154351 (bioRxiv, 2017)
# B1: Bag6 minimal TRC35-binding domain containing the NLS (residues 1000-1054) (domain or fragment)
# chain: ETEPWAAAVPPEWVPIIQQDIQSQRKVKPQPPLSDAYLSGMPAKRRKTMQGEGPQ
# Target: TRC35 (residues 23 to 305) (human, UniProt Q7L5D6 23-305)
# Assay: crystal structure
# Sequence of TRC35 (residues 23 to 305) (Q7L5D6 23-305): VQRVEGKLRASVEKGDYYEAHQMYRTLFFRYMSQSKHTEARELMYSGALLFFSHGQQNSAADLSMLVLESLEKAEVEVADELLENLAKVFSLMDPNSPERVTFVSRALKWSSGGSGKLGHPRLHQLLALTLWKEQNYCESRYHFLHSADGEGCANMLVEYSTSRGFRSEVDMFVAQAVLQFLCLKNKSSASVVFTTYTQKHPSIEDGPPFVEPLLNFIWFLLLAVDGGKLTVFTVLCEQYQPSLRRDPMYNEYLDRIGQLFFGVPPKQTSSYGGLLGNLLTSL
binder,measurement,value
B1,binding result,binds
